# Results reported in patent US20220403048A1, “BINDING MOLECULES TO ARGINASE II [ARG2]” (Cancer Research Technology Limited, priority 2019, published 2022).
# T1: ARG2 from CCM of LNCaP, A673 and A2780-Cis (Homo sapiens, UniProt P78540)
# T1 construct: ARG2 is released into the CCM from LNCaP, A673 and A2780-Cis cell lines; endogenous in cells; host or cells: cell conditioned medium of cancer cell lines (LNCaP, A673, A2780-Cis and others)
# T1 sequence (P78540 23-354): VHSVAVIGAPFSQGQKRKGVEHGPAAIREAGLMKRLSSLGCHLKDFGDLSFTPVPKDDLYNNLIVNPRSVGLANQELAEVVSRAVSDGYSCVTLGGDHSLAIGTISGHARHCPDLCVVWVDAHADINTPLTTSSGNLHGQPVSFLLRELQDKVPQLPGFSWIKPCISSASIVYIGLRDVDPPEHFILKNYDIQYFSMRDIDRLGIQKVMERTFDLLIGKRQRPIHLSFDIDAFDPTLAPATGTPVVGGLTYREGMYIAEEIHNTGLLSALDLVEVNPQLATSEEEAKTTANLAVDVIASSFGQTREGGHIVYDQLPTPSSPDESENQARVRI
# T2: human ARG2 (Homo sapiens, UniProt P78540)
# T2 construct: made in house
# T2 sequence (P78540 with tags, fused parts or gaps): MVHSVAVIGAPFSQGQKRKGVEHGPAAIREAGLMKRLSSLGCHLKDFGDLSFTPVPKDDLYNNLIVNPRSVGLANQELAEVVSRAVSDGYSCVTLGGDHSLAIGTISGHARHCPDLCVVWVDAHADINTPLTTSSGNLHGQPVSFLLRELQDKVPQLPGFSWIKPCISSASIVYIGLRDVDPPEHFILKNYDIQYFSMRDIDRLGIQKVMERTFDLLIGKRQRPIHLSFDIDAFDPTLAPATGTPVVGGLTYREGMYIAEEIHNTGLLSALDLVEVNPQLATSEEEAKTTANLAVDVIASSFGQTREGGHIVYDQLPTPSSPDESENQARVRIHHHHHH
# Columns and labels:
# [1] = biological target: T1, ARG2 from CCM of LNCaP, A673 and A2780-Cis; assay: ELISA binding to ARG2 from CCM of cancer cell lines; details: biotinylated IgG at 10 μg/ml as detection antibody, FIG. 18
# Description: In this experiment the presence of ARG2 in CCM samples was validated using commercial ARG2 ELISA kit (Cloud-Clone Corp., cat. SED796Hu). Additionally, the protocol was modified to include 1st generation IgG C0021061 and 2nd generation IgG C0021158 as detection antibodies to confirm binding of ARG2 IgG's to ARG2 expressed from cancer cell lines (FIG. 18).
# The commercial kit is a 96-well plate pre-coated with anti-ARG2, which uses sandwich ELISA to quantify ARG2 in samples. Standards, biotinylated detection antibody, detection, substrate, and stop reagents are all provided in the kit. […] 100 μl of diluted CCM/media control was used for each well of kit and ELISA was performed following manufacturer's protocol. Each sample was run in duplicate. In parallel, CCM/media control samples were also included to test for binding of C0021061 and C0021158 to ARG2 in CCM samples. […] At the end of the assay, absorbance at 450 nm was read out on PheraStar (BMG). The absorbance values of standards were used to make standard curve and was used to interpolate ARG2 levels in CCM samples (where PAD detection antibody supplied with the kit was used). Similarly, absorbance reads from wells that received C0021061 and C0021158 were used to […] and 2nd generation ARG2 IgGs (C0021061 and C0021158 respectively) bind to ARG2 in CCM samples (FIG. 18).
# human ARG2 = biological target: T2, human ARG2; assay: X-ray co-crystal structures of ARG2-Fab complexes, buried surface area of epitope residues; details: total of interface residues
# Procedure: The construct used for crystal trials was ARG2 (23-354) containing a C-terminal Gly3 linker and His10-tag (ARG2+C0020187, SEQ ID NO: 355: huARG2-His10) or a simple C-terminal His6-tag (ARG2+C0021181 and ARG2+C0021158, SEQ ID NO: 357: huARG2-His6). Crystals suitable for structure determination were obtained using the sitting drop methodology. For ARG2+C0020187, 0.2 μl of complex solution (2.0 mg/ml, ARG2:Fab=3:1, purified by gel filtration) were mixed with 0.1 μl of crystallisation solution containing 2 M (NH4)2SO4. Round, disc-shaped crystals (60×60×20 μm) appeared after 2 days. For ARG2+C0021181, 0.5 μl of complex solution (6.3 mg/ml) were mixed with 0.5 μl of a crystallisation solution containing 100 mM MMT (malic acid:MES:tris=1:2:2) pH 5.0, 20% glycerol, 10% PEG4000, 15 mM NaNO3, 15 mM Na2HPO4, 15 mM (NH4)2SO4. Hexagonal disc-shaped crystals (100×100×20 μm) appeared after 2 days and reached their final size after a week. For ARG2+C0021158, 0.25 μl of complex solution (7.0 mg/ml, containing 20% diluted microseeds of an ARG2+C0021181 crystal) were mixed with 0.25 μl of a crystallisation solution containing 2 M (NH4)2SO4. Crystals of irregular shape (60×60×60 μm) appeared after 2 days. For the ARG2+C0020187 and ARG2+C0021158 crystals, 3 M (NH4)2SO4 and 5% glycerol were added for cryo-protection, after which the crystals were cryo-cooled by plunging them into liquid N2. Data sets were collected at DLS, beamline i04-1 (ARG2+C0020187) or BESSY II, HZB, beamline MX-14-1 (ARG2+C0021181 and ARG2+C0021158). The crystals of ARG2+C0020187 diffracted up to 3.25 Å in space group P 65 2 2 with unit cell parameters a=b=138 Å, c=551 Å.
# The structures were solved by molecular replacement using Phaser in the CCP4 program suite using the reported structure of ARG2 (PDB-ID 4HZE) and previously solved high-resolution structures of the individual Fabs in the molecular replacement search. For ARG2+C0020187 the asymmetric unit contained three copies each of ARG2 and the Fab, respectively, with the CL and CH domains being present in different orientations, one of pair which was poorly defined in the electron density. For ARG2+C0021181 and ARG2+C0021158 the asymmetric units contained one copy of ARG2 and one copy of the Fab, however for ARG2+C0021181 only the VL and VH domains of the Fab were well defined, with CL and CH domains most likely being present in two orientations (reflected by the increased B factor and overall worse electron density). Automated and manual refinement was then performed by alternating between using REFMAC5 (with twin- and TLS refinement turned on towards finalising the structures for ARG2+C0021181 and ARG2+C0021158) and COOT, respectively. […]
Molecule,"binding to ARG2 from CCM of LNCaP, A673 and A2780-Cis (ELISA) [1]",% buried (human ARG2; C0021158 complex) [%],ASA (solvent accessible surface area) (human ARG2; C0021158 complex) [Å^2],BSA (buried surface area) (human ARG2; C0021158 complex) [Å^2],% buried (human ARG2; C0021181 complex) [%]
"C0021061: anti-ARG2 antibody, first generation lead, VH SEQ ID NO: 62, VL SEQ ID NO: 67 (antibody, listed as Homo sapiens, V domains shown, C0021061) VH: EVQLLESGGGLVQPGGSLRLSCAASGFTFSSYAMSWVRQAPGKGLEWVSAKPTDAGSTYYADSVKGRFTISRDNSKNTLYLQMNSLRAEDTAVYYCARLRADLGLYMDLWGRGTLVTVSS VL: QSVLTQPPSVSAAPGQKVTISCSGSSSNIGNHYVSWYQQLPGTAPKLLIYNTVYPKSGIPDRFSGSKSGTSATLGITGLQTGDEADYYCGTWDSSLSALVFGGGTKLTVL",binding,,,,
"C0021158: anti-ARG2 antibody, second generation lead, VH SEQ ID NO: 272, VL SEQ ID NO: 277 (antibody, listed as Homo sapiens, V domains shown, C0021158) VH: EVQLLESGGGLVQPGGSLRLSCAASGFTFRYEVAAWVRQAPGKGLEWVSAISGPIPKGYYADSVKGRFTISRDNSKNTLYLQMNSLRAEDTAVYYCARLRADLGLYMDLWGRGTLVTVPS VL: QSVLTQPPSVSAAPGQKVTISCSGSSSNIGNHYVSWYQQLPGTAPKLLIYDNSERTAGVPDRFSGSKSGTSATLGITGLQTGDEADYYCGTWDELTSNLVFGGGTKLTVL",binding,50,2012.6,1000.3,
"C0021181: anti-ARG2 antibody, VH SEQ ID NO: 342, VL SEQ ID NO: 347 (antibody, listed as Homo sapiens, V domains shown, C0021181) VH: EVQLLESGGGLVRPGGSLRLSCAASEFTFRYDYHVWVRQAPGKGLEWVSAISGSGGSTYYADSVKSRFTISRDNSKNTLYLQMNSLRAEDTAVYYCARLRADLGLYMDLWGRGTLVTVSS VL: QSVLTQPPSVSAAPGQKVAVSCSGSSSNIGSHYVSWYQQLPGTAPKLLIYDNSERTSGIPDRFSGSKSGTSATLGITGLQTGDEADYYCGTWDELTSNLVFGGGTRLTVL",,,,,50
